Measurements published in PMC6848142.

Tested on: KRAS wild type
Assay: MST
Conditions: MST: labeled protein 20 nM final in PBS, RNA diluted in deionized water and mixed 1:1; RNA folded in TE (70 C 5 min, then ice 15 min); pH and assay temperature …

Substance: SNORD50A
- Kd: 140 nM

Substance: SNORD50B
- Kd: 122 nM
